# According to patent publication US20100234274A1, “Use of Nestafin-1 in the Treatment for Diabetes” (priority 2009, published 2010):
# T1: recombinant nesfatin-1 (UniProt P81117)
# T1 sequence: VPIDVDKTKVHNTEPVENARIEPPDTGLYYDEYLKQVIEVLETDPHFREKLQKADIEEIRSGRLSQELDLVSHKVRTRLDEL
# B1: nesfatin-1: recombinant nesfatin-1 expressed and purified from genetically engineered E. coli; secreted N-terminus fragment of NUCB2 (protein)
# peptide: T1 sequence
# B2: NUCB2: hypothalamus-secreted protein containing 396 amino acids, precursor of nesfatin-1 (protein, UniProt P80303 25-420, looked up)
# Nucleobindin-2: VPIDIDKTKVQNIHPVESAKIEPPDTGLYYDEYLKQVIDVLETDKHFREKLQKADIEEIKSGRLSKELDLVSHHVRTKLDELKRQEVGRLRMLIKAKLDSLQDIGMDHQALLKQFDHLNHLNPDKFESTDLDMLIKAATSDLEHYDKTRHEEFKKYEMMKEHERREYLKTLNEEKRKEEESKFEEMKKKHENHPKVNHPGSKDQLKEVWEETDGLDPNDFDPKTFFKLHDVNSDGFLDEQELEALFTKELEKVYDPKNEEDDMVEMEEERLRMREHVMNEVDTNKDRLVTLEEFLKATEKKEFLEPDSWETLDQQQFFTEEELKEYENIIALQENELKKKADELQKQKEELQRQHDQLEAQKLEYHQVIQQMEQKKLQQGIPPSGPAGELKFEPHI
# Experiments:
# db/db mice [1] = test: i.v. injection of plasmin inhibitors in db/db mice (serum nesfatin-1, food intake, body weight); format: in vivo, mouse; conditions: for circulating nesfatin-1: serum at 30 minutes
# Procedure: Lower nesfatin-1 in “saline” than “ff db/db” (FIG. 3b) was due to blood dilution after injection. (b) Reduction in body weight after a 3-day i.v. AMCA (15 mg/day); (c) Food intake at day 3 during a 3-day i.v. AMCA (15 mg/day).
# Hypothalamus in acetic acid supplemented with protease inhibitor cocktail tablets (Roche, Indianapolis, Ind.) was homogenized, sonicated and heated at 95° C. for 15 minutes. The samples were then centrifuged at 13,200 rpm at 4° C. for 30 minutes. The supernatants were finally collected as their protein contents were determined by the Bradford assay (Thermo-Fisher Sci. Rockford, Ill.). Mouse serum was freshly prepared by drawing blood through ophthalmectomy. About […] hypothalamic total proteins or 25 μL serum were analyzed with Waters Delta 600E/2487/717 HPLC system using an analytical C18 reverse phase column (4.6×250 mm/5 μm, Hambon, Zhangjiagang, Conn.). Nesfatin-1 was eluted with a linear gradient from 20%-40% solvent B (solvent A: water with 0.1% trifluoroacetic acid, solvent B: acetonitrile with 0.1% trifluoroacetic acid) for 20 minutes at the flow rate of iml/minute. The purified nesfatin-1 was used as the standard to determine the retention time and plot the standard curve. The fraction collected at the retention time was sent for the mass spectrometry analysis.
# It is unknown how nesfatin-1 is cleared from circulation. The tiny amount of plasmin generation in periphery was previously reported and confirmed in our study (data not shown). AMCA and aprotinin, two inhibitors of plasmin, was i.v. injected to db/db. The reduction in food intake and body weight was seen while circulating nesfatin-1 was increased (FIG. 8). […] Therefore, peripheral nesfatin-1 was believed at least partially to be degraded by plasmin.
# recombinant nesfatin-1 = biological target: T1, recombinant nesfatin-1
# db/db mice [2] = test: Inhibitor pre-treatment before i.v. nesfatin-1 in db/db mice, blood glucose; format: in vivo, mouse; conditions: blood glucose in 6 hours
# Procedure: GW9662, a PPAR-gamma irreversible inhibitor, was i.v. injected into the tail vein of db/db mice at the dose of 0.45 μg per gram body weight. After 30 minutes, 100 ug Nesfatin-1 was injected into the tail vein of db/db mice. Blood glucose was measured in 6 hours.
# Compound C, a 5′-AMP-activated protein kinase (AMPK) specific inhibitor, was intraperitoneally injected to db/db mice at the dose of 20 mg per kg body weight. Subsequently, 100 ug Nesfatin-1 was injected into the tail vein of db/db mice. Blood glucose was measured in 6 hours.
# [3] = test system: Streptozotocin-induced type-I diabetic C57BL/6J mice; test: Streptozotocin-induced type-I diabetic mice, blood glucose; format: in vivo; conditions: 100 μg/mouse i.v. alone or combined with s.c. insulin (2 ng/mouse)
# Procedure: (§1) Amazingly as described above, the diabetic symptoms of db/db mice were essentially eliminated in plg^−/−lepr^−/−, which couldn't be possibly explained by the anorexigenic effect of nesfatin-1.
# Male C57BL/6J mice (10 weeks) were given intraperitoneal injections of Streptozotocin (STZ) in sodium citrate (pH 4.5) on two consecutive days (100 mg/kg/day). Blood glucose was measured by tail vein sampling using the glucose oxidase enzymatic test. Diabetes was defined as a morning blood glucose reading of >16 mM after STZ. When blood glucose levels exceeded 30 mM, diabetic mice were given 16 ng of porcine insulin (Wangbang, Xuzhou, Conn.) every second day to prevent weight loss while maintaining blood glucose levels within the hyperglycemic range (16-30 mM). Nesfatin-1 (100 μg/mouse) was i.v. injected either alone or combined with s.c. insulin (2 ng/mouse) to STZ-induced type-I diabetic mice.
# wild-type mice = test: Intraperitoneal glucose tolerance test (IGTT) in wild-type mice; format: in vivo, mouse; conditions: 100 μg nesfatin-1, i.v. injection of 1.5 g/kg glucose
# Procedure: Mice of the investigated genotype (plg^+/+lepr^−/−, plg^−/−lepr^−/−, plg^+/+lepr^+/+, plg^−/−lepr^+/+) were fasted for 18 hours at 8, 16 and 24 weeks old, before blood sampling from tail veins to measure fasting blood glucose using a glucose meter (Accu-Chek, Roche). Mice serum insulin was measured at the age of 12 weeks by ELISA (ALPCO, Salem, N.H.). IGTT was performed previously. As briefly, 12-week old mice were placed in clean cages without food at 4 pm on the day prior to the experiment. […] Blood glucose was measured immediately before and at 10, 20, 30, 60, 90, 120, and 180 minutes after the injection of glucose.
# as §1
# [4] = both directions, nonsaturable system; cited from earlier work
# rats [5] = conditions: cited from earlier work
# plasmin = plasmin (Homo sapiens, UniProt P00747); test: Incubation of recombinant nesfatin-1 with plasmin; format: biochemical
# Procedure: Arrows indicated the putative cleavage sites by plasmin. (b) Nesfatin-1 was completely digested by plasmin within 2 hours.
# The recovery of hypothalamic nesfatin-1 in plg^−/−lepr^−/− was consistent to its normalization in food intake and body weight (FIG. 2ac). Fasted mice always had less nesfatin-1 in hypothalamus than their freely feeding counterparties (FIG. 5b). Furthermore, plasminogen deficiency provided a unique approach to study the chronic effect of elevated nesfatin-1 in hyperphagic obese animals, which was impossible for the i.c.v. or i.p. administration due to the short half-time of nesfatin-1. Consequently, agrp and npy were found reduced in plg^−/−lepr^−/−, while pomc was elevated compared with plg^+/+lepr^−/− (FIG. 6), contradicting to the previous report that i.c.v. nesfatin-1 didn't alter the expression of pomc, npy and agrp. Consistent to the present finding, the same group reported the up-regulation of pomc by i.p. nesfatin-1 in NTS recently.
# db/db mice [6] = test: Blood glucose after i.v. nesfatin-1 in db/db mice; format: in vivo, mouse
# [7] = i.c.v. or i.p. injection; cited from earlier work
# ob/ob mice = test: Blood lipid analysis after i.v. nesfatin-1 in ob/ob mice; format: in vivo, mouse; conditions: 100 ug tail vein, 3 hours after injection
# Procedure: One hundred ug Nesfatin-1 was injected into the tail vein of ob/ob mice. Blood samples were taken 3 hours after the injection for lipid analysis.
# [8] = Clearance of i.v. nesfatin-1 from circulation; format: in vivo, mouse
# rats [9] = conditions: injected directly into the brain of rats; cited from earlier work
# Sequence of plasmin (P00747 97-810, species assumed): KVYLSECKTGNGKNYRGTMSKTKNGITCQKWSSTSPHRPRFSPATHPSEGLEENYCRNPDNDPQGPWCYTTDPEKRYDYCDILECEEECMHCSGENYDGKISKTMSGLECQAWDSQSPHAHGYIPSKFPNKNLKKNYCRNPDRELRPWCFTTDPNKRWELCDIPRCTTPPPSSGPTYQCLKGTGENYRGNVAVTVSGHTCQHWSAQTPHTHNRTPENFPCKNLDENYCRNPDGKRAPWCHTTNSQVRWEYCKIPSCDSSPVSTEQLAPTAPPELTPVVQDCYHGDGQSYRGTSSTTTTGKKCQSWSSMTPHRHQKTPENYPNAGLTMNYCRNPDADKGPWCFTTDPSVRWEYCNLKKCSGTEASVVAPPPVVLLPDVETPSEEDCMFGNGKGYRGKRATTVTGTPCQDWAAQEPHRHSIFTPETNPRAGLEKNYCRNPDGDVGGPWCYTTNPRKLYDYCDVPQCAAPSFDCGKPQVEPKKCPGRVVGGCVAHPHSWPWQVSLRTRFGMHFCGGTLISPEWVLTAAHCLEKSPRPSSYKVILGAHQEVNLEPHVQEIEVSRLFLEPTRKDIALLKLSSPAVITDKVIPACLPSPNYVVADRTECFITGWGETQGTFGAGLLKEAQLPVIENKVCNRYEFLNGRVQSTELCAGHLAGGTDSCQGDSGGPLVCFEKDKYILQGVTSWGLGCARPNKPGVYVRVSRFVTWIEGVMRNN
# Sequence of plasmin (P00747 97-580 partner limits assumed, species assumed): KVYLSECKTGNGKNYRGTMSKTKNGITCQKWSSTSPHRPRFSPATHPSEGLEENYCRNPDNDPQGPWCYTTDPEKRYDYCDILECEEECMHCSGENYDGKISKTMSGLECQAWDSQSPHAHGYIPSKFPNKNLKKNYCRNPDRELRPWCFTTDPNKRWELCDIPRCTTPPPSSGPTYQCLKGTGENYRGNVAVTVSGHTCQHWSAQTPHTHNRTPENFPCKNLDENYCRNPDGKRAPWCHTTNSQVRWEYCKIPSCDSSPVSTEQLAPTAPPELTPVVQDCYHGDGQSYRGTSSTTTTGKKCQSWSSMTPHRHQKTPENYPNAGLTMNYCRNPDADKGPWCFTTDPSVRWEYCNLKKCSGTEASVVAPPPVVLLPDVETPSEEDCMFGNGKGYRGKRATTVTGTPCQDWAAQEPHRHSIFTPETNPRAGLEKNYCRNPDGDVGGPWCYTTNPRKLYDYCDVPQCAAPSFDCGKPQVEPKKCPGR
molecule,measurement,setting,value
aprotinin,body weight,db/db mice [1],reduction
same,food intake,db/db mice [1],reduction
same,circulating nesfatin-1,db/db mice [1],increased
plasmin,degradation of recombinant nesfatin-1 on incubation with plasmin,recombinant nesfatin-1,It was then incubated with plasmin and rapidly degraded as expected
same,digestion of nesfatin-1 by plasmin (in vitro incubation),recombinant nesfatin-1,Nesfatin-1 was completely digested by plasmin within 2 hours
c1cc(-c2cnn3cc(-c4ccc(OCCN5CCCCC5)cc4)cnc23)ccn1 [Compound C],inhibition of the anti-diabetic effect of nesfatin-1,db/db mice [2]; 20 mg per kg body weight intraperitoneally before 100 ug nesfatin-1,fully inhibited
O=C(Nc1ccccc1)c1cc([N+](=O)[O-])ccc1Cl [GW9662],inhibition of the anti-diabetic effect of nesfatin-1,"db/db mice [2]; 0.45 μg per gram body weight i.v., 30 minutes before 100 ug nesfatin-1",fully inhibited
"NC[C@H]1CC[C@H](C(=O)O)CC1 [AMCA, tranexamic acid]",body weight,db/db mice [1],reduction
same,food intake,db/db mice [1],reduction
same,circulating nesfatin-1,db/db mice [1],increased
B1,blood glucose,[3],decreased only when nesfatin-1 was injected with s.c. insulin
same,uptake of blood sugar during IGTT,wild-type mice,significantly enhanced the uptake of blood sugar
same,blood brain barrier crossing,[4],crosses the Blood Brain Barrier (BBB)
same,neuropsychological effect,rats [5],increasing anxiety and fear-related behaviors
same,time to complete digestion by plasmin,plasmin; FIG. 4b,≤ 2 h
same,degradation on incubation with plasmin,plasmin; recombinant nesfatin-1 from E. coli,rapidly degraded
same,blood glucose,"db/db mice [6]; 100 μg i.v., freely fed db/db",significantly reduced
same,diabetic improvement,"db/db mice [6]; i.c.v. injection, db/db, data not shown",little diabetic improvement
same,duration of anti-diabetic effect,db/db mice [6]; i.v.,> 6 h
same,dose and time dependence of anti-diabetic effect,"db/db mice [6]; i.v., FIG. 7d, e",dose- and time-dependent
same,body weight,[7],reduces body weight
same,food intake,[7],inhibits food intake
same,HDL in blood,ob/ob mice,unaffected
same,LDL in blood,ob/ob mice,significantly reduced
same,total cholesterol in blood,ob/ob mice,significantly reduced
same,triglyceride in blood,ob/ob mice,significantly reduced
same,clearance in plg−/− versus plg+/+,"[8]; i.v., data not shown",cleared much slower
same,half-life in circulation,"[8]; mouse, in vivo",10 min
B2,body weight,rats [9],decreases body weight
same,feeding,rats [9],promotes anorexia
